According to US20190338018A1:

Target: DNABII protein tips
Assay: cell-based or functional assay

B1: mAb mIhfB4NTHI Fab (murine, clone 12E6.F8.D12.D5) (Fab, V domains shown)
VH: EVQLQESGAELVRSGASVKLSCTASGFNIKDYYMHWVKQRPEQGLEWIGWIDPENDDTEYVPKFQGKASMTADTSSNTAYLQLSSLTSEDTAVYYCTELGAYWGQGTLV
VL: not shown
Reduction in Biomass (in vitro vs NTHI biofilms, 171 nM, COMSTAT2, relative to nonspecific murine IgG1): 77% | reduction in biomass of NTHI 86-028NP biofilm in vitro, relative to mAb IgG1 Fab control: 74%

B2: mAb mIhfB4NTHI (murine monoclonal IgG, clone 12E6.F8.D12.D5) (antibody, V domains shown)
VH: B1 VH
VL: not shown
Reduction in Biomass (in vitro vs NTHI biofilms, 171 nM, COMSTAT2, relative to nonspecific murine IgG1): 71%
